Laboratory results reported in paper PMC314469, “Protein Interaction Networks by Proteome Peptide Scanning” (PLoS Biology, 2004).

B1: YER032W 50-63 (peptide)
chain: MSLPVTPVKSKVSS
B2: YOR337W 1-14 (peptide)
chain: MTAPLWPNKNEKNH
B3: YLR178C 93-106 (peptide)
chain: MTDPDAPSKTDHKW
B4: YLR179C 77-90 (peptide)
chain: MTDPDAPSRTEHKW
B5: YFL036W 764-777 (peptide)
chain: MVLPPAPPKNSDPS
B6: Q0297 11-24 (peptide)
chain: MVRPAPPRRADPEG
B7: YPR052C 1-14 (peptide)
chain: MVTPREPKKRTTRK
B8: YCL063W 147-160 (peptide)
chain: MVTPSKPPKKSVGF
B9: YJL201W 440-453 (peptide)
chain: NAKPPLPIKAVTRP
B10: YGR076C 38-51 (peptide)
chain: NANPFLPNKHPVTQ
B11: YBR114W 165-178 (peptide)
chain: NAPPYVPQRSKQPD
B12: YHR164C 1037-1050 (peptide)
chain: NDDPVIPYKLSKDT
B13: YKL101W 777-790 (peptide)
chain: NEGPEYPTKIEKNQ
B14: YOR195W 2-15 (peptide)
chain: NEVPTTPVRLILGQ
B15: YDL064W 66-79 (peptide)
chain: NEYPSKPPKVKFPA
B16: YDR421W 532-545 (peptide)
chain: NHIPPFPLRFSFAQ
B17: YMR179W 373-386 (peptide)
chain: NINPKQPPKTSGEK

Assays:
Test in all cases: SPOT array
[1] = target: T1, Boi1 SH3 (BOI1_YEAST), P38041
T1 chain: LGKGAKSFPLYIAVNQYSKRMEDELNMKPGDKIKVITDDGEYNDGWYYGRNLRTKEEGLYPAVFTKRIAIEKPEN

[2] = target: T2, Boi2 SH3 (BOI2_YEAST), P39969
T2 chain: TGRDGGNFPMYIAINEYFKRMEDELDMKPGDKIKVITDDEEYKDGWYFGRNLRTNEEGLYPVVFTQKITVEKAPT

[3] = target: T3, Rvs167 SH3 (RV167_YEAST), P39743
T3 chain: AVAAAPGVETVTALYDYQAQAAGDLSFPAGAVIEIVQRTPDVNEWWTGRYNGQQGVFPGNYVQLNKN

[4] = target: T4, Yfr024 SH3 (LSB3_YEAST), P43603
T4 chain: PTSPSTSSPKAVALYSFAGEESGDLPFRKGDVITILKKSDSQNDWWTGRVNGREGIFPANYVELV

[5] = target: T5, Yhr016c SH3 (YSC84_YEAST), P32793
T5 chain: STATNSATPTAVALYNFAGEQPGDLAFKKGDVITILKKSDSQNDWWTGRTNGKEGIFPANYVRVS

| Binder | normalised SPOT signal, Boehringer light units (BLU); mean over the file's lines of this peptide [1] | normalised SPOT signal, Boehringer light units (BLU); mean over the file's lines of this peptide [2] | normalised SPOT signal, Boehringer light units (BLU); mean over the file's lines of this peptide [3] | normalised SPOT signal, Boehringer light units (BLU); mean over the file's lines of this peptide [4] | normalised SPOT signal, Boehringer light units (BLU); mean over the file's lines of this peptide [5] |
| --- | --- | --- | --- | --- | --- |
| B1 | 0.6 | 37.9 | 111 | 2120 | 257 |
| B2 | 32.9 | 25.8 | 55.3 | 109 | 257 |
| B3 | -0 | 34.4 | 32.5 | 56.6 | 109 |
| B4 | 124 | 34.4 | 23 | 122 | 239 |
| B5 | 54 | 34.7 | 79.6 | 892 | 273 |
| B6 | 3640 | 1310 | 14400 | 18800 | 7790 |
| B7 | 187 | 88.4 | 163 | 620 | 768 |
| B8 | 149 | 85.1 | 114 | 2650 | 361 |
| B9 | 2020 | 48.5 | 32.9 | 1870 | 288 |
| B10 | 28.5 | 54 | 81.9 | 1430 | 352 |
| B11 | 558 | 200 | 14300 | 11800 | 8020 |
| B12 | 92.9 | 44.3 | 54.5 | 198 | 233 |
| B13 | 125 | 33.6 | 20.8 | 127 | 109 |
| B14 | 76.1 | 34.2 | 48.6 | 2530 | 2090 |
| B15 | 66.8 | 54.4 | 60.2 | 415 | 54.8 |
| B16 | 119 | 35.5 | 106 | 6920 | 2580 |
| B17 | 24.7 | 5.7 | 9.7 | 207 | 225 |
